Results on seven molecules are retold here after patent US12312417B2, “Binding proteins 1” (Nucleus Therapeutics Pty. Ltd., priority 2017, dated 2025).

What all share (type): cell-based
Assay [1] relates to HDR-proficient DLD1 cells. Briefly: Cell death in HDR-proficient cells, di-scFv with PARP inhibitor. The following applies: 5 nM olaparib, 10 μM di-scFv, or both. The protocol: Homology-directed repair (HDR) deficient BRCA2-DLD1 cells and PTEN-U251 cells were treated with control, 5 nM olaparib, 10 μM di-scFv, or 10 μM di-scFv+5 nM olaparib. Surviving fraction was determined by colony formation assay.
It was then determined whether the combination of di-scFv and olaparib is simply universally cytotoxic, regardless of DNA repair status. To evaluate this possibility, HDR-proficient DLD1 cells were treated with the above regimen to confirm selectivity of combination therapy to HDR-deficient malignant cells.

The test system of a further assay is DLD1 colon cancer cells. Put plainly: Alkaline phosphatase-based survey of nuclear penetration. The following applies: cells treated for one hour; right shift of histogram peak. The protocol: DLD1 colon cancer cells were treated with control media or each of the indicated variants for one hour. Cells were then washed, fixed, blocked with 1% BSA-TBST, and then probed with protein L for one hour. Cells were then washed and incubated with an anti-protein L primary antibody for one hour. After another round of washing cells were incubated with an alkaline phosphatase-conjugated secondary antibody for one hour. Finally, cells were washed and signal was developed by addition of NBT/BCIP. Dark stain indicates location of the variants.
Raw integrated density values reflecting nuclear alkaline phosphatase staining in the DLD1 cells from the experiment in FIG. 3 were obtained by analysis using ImageJ Boxplots of distributions of values are presented for each variant in FIG. 4.
Histogram plots of cell counts versus nuclear staining intensity (represented as reciprocal intensity in arbitrary units) are shown in FIG. 5.

In assay [2] the test system is PTEN-deficient U251 human glioma cells. Briefly: Phospho-53BP1 foci accumulation (DNA damage). The following applies: PTEN-deficient U251; twenty-four hours; vs control media. The protocol: A matched pair of PTEN-proficient and deficient U251 human glioma cells were treated with control media or media containing Variant 10, 11, 13, 15, or 16 for twenty-four hours. Cells were then washed, fixed, blocked, and then probed with an anti-phospho-53BP1 antibody overnight. Cells were then washed and incubated with an AlexaFluor555-conjugated secondary antibody. Finally, cells were washed, counterstained with DAPI, and visualized under a fluorescence microscope. Images were saved and evaluated by CellProfiler to determine mean number of phospho-53BP1 foci per cell.
A matched pair of BRCA2-proficient and deficient DLD1 colon cancer cells and PTEN-proficient and deficient U251 human glioma cells were treated with control media or media containing 10 μM di-scFv variant 13 (SEQ ID NO: 41), 5 nM olaparib, or combination treatment.

Assay [3] deals with PTEN-deficient U87 human glioma cells. Put plainly: Cell viability by Trypan blue exclusion assay. The following applies: 7 days after treatment; relative to control treated cells. The protocol: Cell viability of PTEN-deficient U87 human glioma cells was also assessed following treatment with control media or media containing Variants 10, 13, 15, or 16. Cell viability was determined 7 days after treatment using Trypan blue exclusion assay and by direct visualization of cell morphology by light microscopy.

The subject of assay [4] is BRCA2-deficient DLD1 colon cancer cells. Put plainly: Cell viability by Trypan blue exclusion assay. The following applies: 7 days later. As to the method: (§1) Next, a matched pair of BRCA2-proficient and deficient DLD1 colon cancer cells was treated with control media or media containing Variants 10, 13, 15, or 16. Cell viability was determined 7 days later by Trypan blue exclusion assay and by direct visualization of cell morphology by light microscopy. […] Representative light microscope images shown the changes in morphology in the BRCA2-deficient cancer cells treated with the variants are shown in FIG. 10, Panel A. Quantitative analysis of the cell survival by Trypan blue exclusion assay is shown in FIG. 10, Panel B.

The test system of assay [5] is BRCA2-proficient DLD1 colon cancer cells. Briefly: Cell viability by Trypan blue exclusion assay. The conditions noted are these: 7 days later. The protocol: as §1

As for `O=C(c1cc(Cc2n[nH]c(=O)c3ccccc23)ccc1F)N1CCN(C(=O)C2CC2)CC1` [olaparib, reference compound], the cell death entry in assay [1] is reported as “remain resistant”.

B1: Variant 14: cell penetrating anti-DNA humanized di-scFv, SEQ ID NO: 42 (protein)
scFv: DIQMTQSPSSLSASLGDRATITCRASKTVSTSSYSYMHWYQQKPGQPPKLLIKYASYLESGVPSRFSGSGSGTDFTLTISSLQPEDAATYYCQHSREFPWTFGGGTKVEIKRADAAPGGGGSGGGGSGGGGSEVQLVESGGGVVQPGGSLRLSCAASGFTFSNYGMHWVRQAPEKGLEWVSYISSGSSTIYYADSVKGRFTISRDNSKNTLYLQMNSLRAEDTAVYYCARRGLLLDYWGQGTTVTVSSASTKGPSVFPLAPLESSGSDIQMTQSPSSLSASLGDRATITCRASKTVSTSSYSYMHWYQQKPGQPPKLLIKYASYLESGVPSRFSGSGSGTDFTLTISSLQPEDAATYYCQHSREFPWTFGGGTKVEIKRADAAPGGGGSGGGGSGGGGSEVQLVESGGGVVQPGGSLRLSCAASGFTFSNYGMHWVRQAPEKGLEWVSYISSGSSTIYYADSVKGRFTISRDNSKNTLYLQMNSLRAEDTAVYYCARRGLLLDYWGQGTTVTVSS
modifications: Variant 14
In the case of B1, in the assay on DLD1 colon cancer cells, the “nuclear penetration relative to the yeast prototype (histogram of cell counts versus nuclear staining intensity)” value was “Most of the variants, other than variants 12 and 14, showed improved nuclear penetration”.

B2: Variant 15: cell penetrating anti-DNA humanized di-scFv, SEQ ID NO: 43 (protein)
scFv: DIQMTQSPSSLSASLGDRATITCRASKTVSTSSYSYMHWYQQKPGQPPKLLIKYASYLESGVPSRFSGSGSGTDFTLTISSLQPEDAATYYCQHSREFPWTFGGGTKVEIKRADAAPGGGGSGGGGSGGGGSEVQLVESGGGDVKPGGSLRLSCAASGFTFSNYGMHWVRQAPEKGLEWVSYISSGSSTIYYADSVKGRFTISRDNSKNTLYLQMNSLRAEDTAVYYCARRGLLLDYWGQGTTVTVSSASTKGPSVFPLAPLESSGSDIQMTQSPSSLSASLGDRATITCRASKTVSTSSYSYMHWYQQKPGQPPKLLIKYASYLESGVPSRFSGSGSGTDFTLTISSLQPEDAATYYCQHSREFPWTFGGGTKVEIKRADAAPGGGGSGGGGSGGGGSEVQLVESGGGDVKPGGSLRLSCAASGFTFSNYGMHWVRQAPEKGLEWVSYISSGSSTIYYADSVKGRFTISRDNSKNTLYLQMNSLRAEDTAVYYCARRGLLLDYWGQGTTVTVSS
modifications: Variant 15
On to B2, for which, in assay [2], the “mean number of phospho-53BP1 foci per cell” value (“mean number … per cell” below) was “increased the number of foci”. The cell viability result in assay [3] is given as “reductions in cell viability”. The “nuclear penetration relative to the yeast prototype (histogram of cell counts versus nuclear staining intensity)” value with DLD1 colon cancer cells was “notable right shift and narrowing of distributions”. Also, the “cell viability / toxicity” value in assay [4] is given as “killed by the variants”; in assay [5] it was “not toxic”.

B3: Variant 12: cell penetrating anti-DNA humanized di-scFv, SEQ ID NO: 40 (protein)
scFv: DIQMTQSPSSLSASVGDRVTITCRASKSVSTSSYSYMHWYQQKPGKAPKLLIKYASYLESGVPSRFSGSGSGTDFTLTISSLQPEDFATYYCQHSREFPWTFGQGTKVEIKRADAAPGGGGSGGGGSGGGGSEVQLVESGGGDVKPGGSLRLSCAASGFTFSNYGMHWVRQAPEKGLEWVSYISSSSSTIYYADSVKGRFTISRDNSKNTLYLQMNSLRAEDTAVYYCARRGLLLDYWGQGTTVTVSSASTKGPSVFPLAPLESSGSDIQMTQSPSSLSASVGDRVTITCRASKSVSTSSYSYMHWYQQKPGKAPKLLIKYASYLESGVPSRFSGSGSGTDFTLTISSLQPEDFATYYCQHSREFPWTFGQGTKVEIKRADAAPGGGGSGGGGSGGGGSEVQLVESGGGDVKPGGSLRLSCAASGFTFSNYGMHWVRQAPEKGLEWVSYISSSSSTIYYADSVKGRFTISRDNSKNTLYLQMNSLRAEDTAVYYCARRGLLLDYWGQGTTVTVSS
modifications: Variant 12
Take B3: in the assay with DLD1 colon cancer cells, the “nuclear penetration relative to the yeast prototype (histogram of cell counts versus nuclear staining intensity)” value was “Most of the variants, other than variants 12 and 14, showed improved nuclear penetration”.

B4: Variant 10: cell penetrating anti-DNA humanized di-scFv, SEQ ID NO: 38 (protein)
scFv: DIQMTQSPSSLSASVGDRVTITCRASKSVSTSSYSYMHWYQQKPGKAPKLLIKYASYLESGVPSRFSGSGSGTDFTLTISSLQPEDFATYYCQHSREFPWTFGQGTKVEIKRADAAPGGGGSGGGGSGGGGSEVQLVESGGGLVQPGGSLRLSCAASGFTFSNYGMHWVRQAPGKGLEWVSYISSSSSTIYYADSVKGRFTISRDNAKNSLYLQMNSLRAEDTAVYYCARRGLLLDYWGQGTTVTVSSASTKGPSVFPLAPLESSGSDIQMTQSPSSLSASVGDRVTITCRASKSVSTSSYSYMHWYQQKPGKAPKLLIKYASYLESGVPSRFSGSGSGTDFTLTISSLQPEDFATYYCQHSREFPWTFGQGTKVEIKRADAAPGGGGSGGGGSGGGGSEVQLVESGGGLVQPGGSLRLSCAASGFTFSNYGMHWVRQAPGKGLEWVSYISSSSSTIYYADSVKGRFTISRDNAKNSLYLQMNSLRAEDTAVYYCARRGLLLDYWGQGTTVTVSS
modifications: Variant 10
Regarding B4, the “mean number … per cell” value in assay [2] is given as “increased the number of foci”. Further, in assay [3], the cell viability entry is “reductions in cell viability”. Further, the “cell viability / toxicity” value in assay [4] is recorded as “killed by the variants”; in assay [5], “not toxic”.

B5: Variant 11: cell penetrating anti-DNA humanized di-scFv, SEQ ID NO: 39 (protein)
scFv: DIQMTQSPSSLSASVGDRVTITCRASKSVSTSSYSYMHWYQQKPGKAPKLLIKYASYLESGVPSRFSGSGSGTDFTLTISSLQPEDFATYYCQHSREFPWTFGQGTKVEIKRADAAPGGGGSGGGGSGGGGSEVQLVESGGGVVQPGGSLRLSCAASGFTFSNYGMHWVRQAPEKGLEWVSYISSSSSTIYYADSVKGRFTISRDNSKNTLYLQMNSLRAEDTAVYYCARRGLLLDYWGQGTTVTVSSASTKGPSVFPLAPLESSGSDIQMTQSPSSLSASVGDRVTITCRASKSVSTSSYSYMHWYQQKPGKAPKLLIKYASYLESGVPSRFSGSGSGTDFTLTISSLQPEDFATYYCQHSREFPWTFGQGTKVEIKRADAAPGGGGSGGGGSGGGGSEVQLVESGGGVVQPGGSLRLSCAASGFTFSNYGMHWVRQAPEKGLEWVSYISSSSSTIYYADSVKGRFTISRDNSKNTLYLQMNSLRAEDTAVYYCARRGLLLDYWGQGTTVTVSS
modifications: Variant 11
On to B5, for which, in assay [2], the “mean number … per cell” value was “increased the number of foci”.

B6: Variant 16: cell penetrating anti-DNA humanized di-scFv, SEQ ID NO: 44 (protein)
scFv: DIQMTQSPSSLSASVGDRVTITCRASKTVSTSSYSYMHWYQQKPGKAPKLLIKYASYLESGVPSRFSGSGSGTDFTLTISSLQPEDFATYYCQHSREFPWTFGQGTKVEIKRADAAPGGGGSGGGGSGGGGSEVQLVESGGGLVQPGGSLRLSCAASGFTFSNYGMHWVRQAPGKGLEWVSYISSGSSTIYYADSVKGRFTISRDNAKNSLYLQMNSLRAEDTAVYYCARRGLLLDYWGQGTTVTVSSASTKGPSVFPLAPLESSGSDIQMTQSPSSLSASVGDRVTITCRASKTVSTSSYSYMHWYQQKPGKAPKLLIKYASYLESGVPSRFSGSGSGTDFTLTISSLQPEDFATYYCQHSREFPWTFGQGTKVEIKRADAAPGGGGSGGGGSGGGGSEVQLVESGGGLVQPGGSLRLSCAASGFTFSNYGMHWVRQAPGKGLEWVSYISSGSSTIYYADSVKGRFTISRDNAKNSLYLQMNSLRAEDTAVYYCARRGLLLDYWGQGTTVTVSS
modifications: Variant 16
As for B6, in assay [2], the “mean number … per cell” value is on record as “increased the number of foci”. Also, the cell viability result in assay [3] was “reductions in cell viability”. The entries for the “cell viability / toxicity” value in assay [4] and in assay [5] were “killed by the variants” and “not toxic”, respectively.
